These results are taken from FireProtDB (doi:10.1006/jmbi.2000.3776).

The labels stand for the following.
B1: Major outer membrane lipoprotein Lpp, P69776 (parent)
chain: MKATKLVLGAVILGSTLLAGCSSNAKIDQLSSDVQTLNAKVDQLSNDVNAMRSDVQAAKDDAARANQRLDNMATKYRK

The variants in this data set derive from B1. The conditions noted are these: Escherichia coli (strain K12), pH 7, CD, structure 1EQ7, whole UniProt chain shown; for ddG of mutation (higher = less stable) / unfolding free energy: 4 °C, GdnHCl, PBS; for Tm / change of melting temperature, mutant - wild type (higher = more stable): Thermal, Sodium phosphate 50mM, NaCl 150mM.

In general, Tm refers to the temperature at which the thermal transition is half complete. With MKATKLVLGAVILGSTLLAGCSSNAKIDQLSSDVQTLNAKVDQLSNDVNAMRSDVQAAKDDAARANQRLDNMATKARK [Y76A], the “ddG of mutation (higher = less stable)” value worked out at 1.1 kcal/mol; the unfolding free energy was determined as 19.4 kcal/mol; the Tm is 63 °C; the “change of melting temperature, mutant - wild type (higher = more stable)” value is -4 °C.
With MKATKLVLGAVILGSTLLAGCSANAKIDQLSSDVQTLNAKVDQLSNDVNAMRSDVQAAKDDAARANQRLDNMATKYRK [S23A], the “ddG of mutation (higher = less stable)” value is 0.8 kcal/mol; the unfolding free energy is 19.7 kcal/mol; the melting temperature (Tm) came to 64 °C; the “change of melting temperature, mutant - wild type (higher = more stable)” value is -3 °C.
